# Data as given in patent US20230167188A1 (BIOLOJIC DESIGN, published 2023).
# T1: recombinant human TNFR2 with 6×his tag (human, UniProt P20333 23-257, limits assumed)
# T1 construct: Bought (Reprokine, Israel); also called TNFR2-His; hTNFR2-His; not shown: 6xHis tag
# T1 sequence (looked up): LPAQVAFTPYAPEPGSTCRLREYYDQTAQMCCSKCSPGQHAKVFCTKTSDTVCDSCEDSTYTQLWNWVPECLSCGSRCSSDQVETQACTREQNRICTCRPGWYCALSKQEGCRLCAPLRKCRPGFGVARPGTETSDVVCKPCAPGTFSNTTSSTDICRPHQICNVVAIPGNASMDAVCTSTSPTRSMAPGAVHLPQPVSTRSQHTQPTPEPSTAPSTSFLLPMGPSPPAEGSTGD
# T2: human TNFR2 (residues 1-461) expressed on HEK-TNFR2 reporter cells (human, UniProt P20333 23-461)
# T2 sequence (looked up): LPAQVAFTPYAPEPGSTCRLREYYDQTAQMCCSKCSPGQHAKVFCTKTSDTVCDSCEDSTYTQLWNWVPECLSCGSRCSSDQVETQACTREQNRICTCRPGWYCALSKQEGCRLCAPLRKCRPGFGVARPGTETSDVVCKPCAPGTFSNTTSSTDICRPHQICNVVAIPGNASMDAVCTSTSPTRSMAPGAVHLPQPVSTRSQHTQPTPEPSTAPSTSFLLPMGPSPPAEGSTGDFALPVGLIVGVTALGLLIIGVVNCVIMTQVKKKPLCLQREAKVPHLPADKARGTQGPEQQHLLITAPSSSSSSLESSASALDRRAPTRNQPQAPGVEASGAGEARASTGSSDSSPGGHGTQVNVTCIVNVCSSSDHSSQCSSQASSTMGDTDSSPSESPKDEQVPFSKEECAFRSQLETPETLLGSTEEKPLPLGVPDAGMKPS
# Tests used:
# [1] = target: T1, recombinant human TNFR2 with 6×his tag; test: yeast surface display, TNFR2-His titrated, flow cytometry MFI
# Protocol: To determine the effective concentration₅₀ (EC₅₀) of TNFR2 binding to yeast scFv or Fab clones (EC₅₀— TNFR2 binding), specific clones were labeled at TNFR concentrations ranging from 0.1 nM to 1000 nM and analyzed on an FACS. Median fluorescence intensity (MFI) was determined for each TNFR2 concentration and EC₅₀ (TNFR2 binding) was calculated using Prisma 8 GraphPad (GraphPad, San Diego, USA) software.
# [2] = target: T2, human TNFR2 (residues 1-461) expressed …; test: cell-based or functional assay
# [3] = target: T1, recombinant human TNFR2 with 6×his tag; test: ELISA, IgG coated, hTNFR2-His titrated, anti-His-HRP
# Protocol: IgG binding affinity to TNFR2 was examined by ELISA. 96 well plates (Greiner Bio-One high binding) were coated with (50 ng/well) of the analyzed antibody and incubated overnight at 4° C. The plates were then washed three times with 300 μl PBS buffer containing 0.05% Tween 20 (PBS-T), blocked with 300μ PBS-T supplemented with 1% to 2% BSA, and incubated for 1 hour at room temperature. Antibodies-coated plates were washed three times with 300 μl PBS-T and incubated with serial dilutions of test ligand hTNFR2-His (Reprokine, Israel) in a final volume of […] for 1-2 hours. Plates were then washed three times with 300 μl PBS-T and incubated with 50 μl anti-HIS-HRP (Santa Cruz Biotechnology, USA, SC-8036HRP) conjugate that was diluted 1:250 in PBS. After an additional wash step of six washes, the reaction was developed with […] tetramethylbenzidine (TMB) reagent (Southern biotech, USA), and stopped with […] 0.5N H₂SO₄. Detection was done on a Synergy LX BioTek (BioTek, USA) plate reader with an absorbance filter set to […]. The binding affinity was determined by fitting the data to a specific binding non-linear regression model on Prisma 8 GraphPad software.
# To test binding affinity of clones reformatted as IgG1 and IgG1LALA to TNFR2, an ELISA EC₅₀ binding experiment was conducted for each antibody.
EC50 [1] [nM],"Functional Agonism EC50 (nM), NFkB-SEAP reporter [2] [nM]",EC50 [3] [nM],Binder
5.6,–,–,CID_324 (scFv) scFv: EVQLVQSGPELKKPGASVKVSCKGSGYTFTDLGINWVRQAPGQGLEWMGWINTHTGEPFYADDFKGRFVFSLDTSVSTAYLQISSLKAEDTAVYYCTRDHPLGLDYWGQGTLVTVSSDIQVTQSPSSLSASVGDRVTITCITSQSVDVNGVSYLNWYQQKPGKVPKFLIYKASRLRSGVPSRFSGSGSGTDFTLTISSLQPEDVATYYCQQSREDPYTFGQGTKVEIK
–,1.4,8.1,"BDG30.086 (antibody, human IgG1, kappa, Human IgG1; also called IgG of CID_262) heavy: not shown light: DIQMTQSPSSLSASVGDRVTITCRASQDISTAVAWSQQKPGKAPKLLIYPASSLYSGVPSRFSGSRSGTDFTLTISSLQPEDFATYYCQQHPYTPPTFGQGTKVEIKRTVAAPSVFIFPPSDEQLKSGTASVVCLLNNFYPREAKVQWKVDNALQSGNSQESVTEQDSKDSTYSLSSTLTLSKADYEKHKVYACEVTHQGLSSPVTKSFNRGEC"
–,0.5,–,"BDG30.203 (antibody, human IgG1, kappa, L234A L235A) heavy: not shown light: DIQMTQSPSSLSASVGDRVTITCRASQDVSTAVAWSQQKPGKAPKLLIYPASSLYSGVPSRFSGSRSGTDFTLTISSLQPEDFATYYCQQPTLTPPTFGQGTKVEIKRTVAAPSVFIFPPSDEQLKSGTASVVCLLNNFYPREAKVQWKVDNALQSGNSQESVTEQDSKDSTYSLSSTLTLSKADYEKHKVYACEVTHQGLSSPVTKSFNRGEC"
–,3.1,–,"BDG30.204 (antibody, human IgG1, kappa, L234A L235A) heavy: not shown light: DIQMTQSPSSLSASVGDRVTITCRASQDVSTAVAWYQQKPGKAPKLLIYPASSLYSGVPSRFSGSRSGTDFTLTISSLQPEDFATYYCQQPGYTPPTFGQGTKVEIKRTVAAPSVFIFPPSDEQLKSGTASVVCLLNNFYPREAKVQWKVDNALQSGNSQESVTEQDSKDSTYSLSSTLTLSKADYEKHKVYACEVTHQGLSSPVTKSFNRGEC"
–,2.9,–,"BDG30.202 (antibody, human IgG1, kappa, L234A L235A) heavy: not shown light: DIQMTQSPSSLSASVGDRVTITCRASQDISTAVAWSQQKPGKAPKLLIYSASSLYSGVPSRFSGSRSGTDFTLTISSLQPEDFATYYCQQPSLTPPTFGQGTKVEIKRTVAAPSVFIFPPSDEQLKSGTASVVCLLNNFYPREAKVQWKVDNALQSGNSQESVTEQDSKDSTYSLSSTLTLSKADYEKHKVYACEVTHQGLSSPVTKSFNRGEC"
–,–,50.4,"BDG30.089 (antibody, human IgG1, kappa, V domains shown, Human IgG1; also called IgG of CID_267) VH: EVQLVESGGGLVQPGGSLRLSCAASGFNIRDYYIHWVRQAPGKGLEWVADIDPTNGDTRYADSVKGRFTISADTSKNTAYLQMNSLRAEDTAVYYCSREGQDGYNAWDLWGQGTLVTVSS VL: DIQMTQSPSSLSASVGDRVTITCRASQDVSTAVAWYQQKPGKAPKLLIYPASSLYSGVPSRFSGSRSGTDFTLTISSLQPEDFATYYCQQHPYTPPTFGQGTKVEIKR"
–,3.9,18.4,"BDG30.087 (antibody, human IgG1, kappa, Human IgG1; also called IgG of CID_264) heavy: not shown light: DIQMTQSPSSLSASVGDRVTITCRASQDVSTAVAWSQQKPGKAPKLLIYPASSLYSGVPSRFSGSRSGTDFTLTISSLQPEDFATYYCQQPTLTPPTFGQGTKVEIKRTVAAPSVFIFPPSDEQLKSGTASVVCLLNNFYPREAKVQWKVDNALQSGNSQESVTEQDSKDSTYSLSSTLTLSKADYEKHKVYACEVTHQGLSSPVTKSFNRGEC"
–,24.7,4.3,"BDG30.085 (antibody, human IgG1, kappa, Human IgG1; also called IgG of CID_261) heavy: not shown light: DIQMTQSPSSLSASVGDRVTITCRASQDISTAVAWSQQKPGKAPKLLIYSASSLYSGVPSRFSGSRSGTDFTLTISSLQPEDFATYYCQQPSLTPPTFGQGTKVEIKRTVAAPSVFIFPPSDEQLKSGTASVVCLLNNFYPREAKVQWKVDNALQSGNSQESVTEQDSKDSTYSLSSTLTLSKADYEKHKVYACEVTHQGLSSPVTKSFNRGEC"
–,49,13.1,"BDG30.088 (antibody, human IgG1, kappa, Human IgG1; also called IgG of CID_266) heavy: not shown light: DIQMTQSPSSLSASVGDRVTITCRASQDVSTAVAWYQQKPGKAPKLLIYPASSLYSGVPSRFSGSRSGTDFTLTISSLQPEDFATYYCQQPGYTPPTFGQGTKVEIKRTVAAPSVFIFPPSDEQLKSGTASVVCLLNNFYPREAKVQWKVDNALQSGNSQESVTEQDSKDSTYSLSSTLTLSKADYEKHKVYACEVTHQGLSSPVTKSFNRGEC"
–,3,5.1,"BDG30.116 (antibody, human IgG1, kappa, L234A L235A, Human IgG1(L234A/L235A); also called IgG of CID_262) heavy: not shown light: DIQMTQSPSSLSASVGDRVTITCRASQDISTAVAWSQQKPGKAPKLLIYPASSLYSGVPSRFSGSRSGTDFTLTISSLQPEDFATYYCQQHPYTPPTFGQGTKVEIKRTVAAPSVFIFPPSDEQLKSGTASVVCLLNNFYPREAKVQWKVDNALQSGNSQESVTEQDSKDSTYSLSSTLTLSKADYEKHKVYACEVTHQGLSSPVTKSFNRGEC"
–,0.85,21.9,"BDG30.032 (antibody, human IgG1, kappa, Human IgG1; produced in HEK cells by Genscript; also called IgG of CID_436) heavy: not shown light: DIQMTQSPILLSASVGDRVTITCRASQDVSTAVAWSQQRTNGSPRLLIYSASSLYSGVPSRFSGSRSGTDFTLTISSLQPEDIADYYCQQPTYTPPTFGAGTKVEIKRTVAAPSVFIFPPSDEQLKSGTASVVCLLNNFYPREAKVQWKVDNALQSGNSQESVTEQDSKDSTYSLSSTLTLSKADYEKHKVYACEVTHQGLSSPVTKSFNRGEC"
–,1,–,"BDG30.115 (antibody, human IgG1, kappa, L234A L235A) heavy: not shown light: DIQMTQSPILLSASVGDRVTITCRASQDVSTAVAWSQQRTNGSPRLLIYSASSLYSGVPSRFSGSRSGTDFTLTISSLQPEDIADYYCQQPTYTPPTFGAGTKVEIKRTVAAPSVFIFPPSDEQLKSGTASVVCLLNNFYPREAKVQWKVDNALQSGNSQESVTEQDSKDSTYSLSSTLTLSKADYEKHKVYACEVTHQGLSSPVTKSFNRGEC"
–,–,50.7,"BDG30.081 (antibody, human IgG1, kappa, V domains shown, Human IgG1; also called IgG of CID_231) VH: EVQLVESGGGLVQPGGSLRLSCAASGFNIRATYIHWVRQSPGKGLEWVADISPDNGDTRYADSVKGRFTISADTSKNTAYLQMNSLRAEDTAIYYCSRDLADGYNAFDLWGQGTLVTVSS VL: DIQMTQSPILLSASVGDRVTITCRASQDVSTAVAWSQQRTNGSPRLLIYSASSLYSGVPSRFSGSRSGTDFTLTISSLQPEDIADYYCQQHGYTPPTFGAGTKVEIKR"
–,–,58.9,"BDG30.084 (antibody, human IgG1, kappa, V domains shown, Human IgG1; also called IgG of CID_234) VH: EVQLVESGGGLVQPGGSLRLSCAASGFNIRAFYIHWVRQSPGKGLEWVADIDPTNGDTRYADSVKGRFTISADTSKNTAYLQMNSLRAEDTAIYYCTREGEDGYNAFDQWGQGTLVTVSS VL: DIQMTQSPILLSASVGDRVTITCRASQDVSTAVAWYQQRTNGSPRLLIYPASSLYSGVPSRFSGSRSGTDFTLTISSLQPEDIADYYCQQPRYTPPTFGAGTKVEIKR"
–,3.8,2.5,"BDG30.113 (antibody, human IgG1, kappa, L234A L235A, V domains shown, Human IgG1(L234A/L235A); also called IgG of CID_327) VH: EVQLVQSGPELKKPGASVKVSCKGSGYTFTDLGMGWVRQAPGQGLEWMGWINTQTGEPFYADDFKGRFVFSLDTSVSTAYLQISSLKAEDTAVYYCTRDHPLGLDYWGQGTLVTVSS VL: DIQVTQSPSSLSASVGDRVTITCITSQSVDVAGVSYLNWYQQKPGKVPKFLIHKASNLRSGVPSRFSGSGSGTDFTLTISSLQPEDVATYYCQQAREDPYTFGQGTKVEIKR"
–,6.4,2.2,"BDG30.114 (antibody, human IgG1, kappa, L234A L235A, V domains shown, Human IgG1(L234A/L235A); also called IgG of CID_328) VH: EVQLVQSGPELKKPGASVKVSCKGSGYTFTDLGMNWVRQAPGQGLEWMGWINTQTGEPFYADDFKGRFVFSLDTSVSTAYLQISSLKAEDTAVYFCARDHPLGLDYWGQGTLVTVSS VL: DIQVTQSPSSLSASVGDRVTITCITSQSVDVNGVSYLNWYQQKPGKVPKFLIYKASILRSGVPSRFSGSGSGTDFTLTISSLQPEDVATYYCQQSREDPYTFGQGTKVEIKR"
